Data as given in patent US11725220B1, “Production of fusel lactates via biocatalysis” (National Technology & Engineering Solutions of Sandia, LLC, priority 2020, dated 2023).

How the values were obtained:
[1] = 25° C.; cited from earlier work
E. coli BL21-DE3 = assay: In vivo production of esters by engineered E. coli, culture supernatants by GC-MS (Example Set 3); type: cell-based; details: culture supernatant, M9 medium, 1 mM IPTG
Excerpt: E. coli cells were engineered through two step cloning. First, the cells (E. coli BL21-DE3, a commercially available genetic transformation-ready strain) were cloned with esterase or transferase enzymes using pET15b plasmid at NdeI/BamHI locus in the vector.
Specifically, plasmids were constructed (PT7::RBS:Gene*::PT7::RBS:pct::RBS:ldh in pET15b) and cloned in E. coli BL21-DE3 with ethanol producing plasmid (pACYDuet-Zm-pdc-Zm-adh). Cells were cultivated with high-cell density in M9 medium and induced with 1 mM IPTG.
Culture supernatants were analyzed through HPLC (for ethanol and lactate) and GC-MS (for esters). Esterase-A yielded highest ethyl lactate (3.5±1.5 mg/L) and ethyl acetate (16±8 mg/L).
FIGS. 18 and 19 show a GC-MS analysis of culture supernatants (collected after 22 h and 46 h of incubation) of mutants extracted with chloroform.

[2] = Kinetics reaction assay, pNPA to pNP, Michaelis-Menten model (Example Set 2); type: biochemical; details: for specificity constant, comparison in words: FIG. 15; for vmax × 10^−6 / Km: pNPA to pNP, cell lysate 50 μg/ml protein, optimal temperature and pH of each enzyme; for Km: read-out: km × 10^−6; for kcat: turnover number, all protein detected by Bradford's reagent assumed to be the enzyme
Excerpt: (§1) Esterase activity is used to indirectly measure the esterification activity required for enzymes to produce ethyl lactate. Cleavage of the ester bond in 4-nitrophenyl acetate (pNPA) to form 4-nitrophenol (pNP) and acetic acid is used to determine the esterase activity of the enzymes. The Km and Vmax values, found by applying the Michaelis-Menten kinetics model to experimental data found at optimal pH and temperature conditions, are used to evaluate enzymatic activity. As disclosed herein, hydrolysis of the ester bond in pNPA was used to estimate the esterification activity of the enzymes.
Enzymatic activity can be characterized by calculating kinetic parameters for the enzymes considered. To calculate kinetic parameters for an enzyme, a kinetic model must be applied to the data.
In this form, only the initial reaction rate and substrate concentrations are considered—with the initial reaction rate being the average change in product concentration between the reaction initiation and the first subsequent reading. Plotting the inverse of v0 against the inverse of [S0] results in what is known as a Lineweaver-Burk plot. An example of a Lineweaver-Burk plot is seen in FIG. 2.
A linear regression of the data in such plots follows the linearized Michaelis-Menten equations. The y-intercept of the Lineweaver-Burk plot is the inverse of vmax; the slope multiplied by vmax gives the value of the km parameter. This is summarized in Equation 4: […]
Therefore, the kinetic parameters of an enzyme can be determined through the parameters obtained through a linear regression applied to linearized kinetics data. Once vmax and km are determined, they can be used to calculate the turnover number and the specificity constant. This approach utilizes experiments being performed with varying initial substrate concentrations while holding all other parameters constant.
(§2) This work involved two separate sets of examples (Generally, Example Set 1 and Example Set 2). Example Set 1 set was performed to determine the optimum temperature and pH conditions for each enzyme to catalyze the pNPA reaction. Three temperatures (22, 30, 37° C.) and three pH conditions (pH of 6, 7, 8) were tested. The temperature and pH condition which led to the highest product concentration were selected as the conditions to be used for each enzyme in Example set 2. The second set of examples was a kinetics reaction assay where reaction progress was measured at five time points (0, 15, 30, 60, 120) for six different initial pNPA concentrations (0, 25, 50, 100, 150, 200 μM).
In Example Set 2, a kinetics reaction assay was performed on the enzymes from Table 1. […] That enzymatic activity was tested for at the ideal temperature and pH conditions determined in the optimization experiment.
One deviation from the common protocols for Example Set 2 was that cell pellets had been stored in −80° C. for seven days instead of the usual 24 hours. In addition, the lysing process included more vigorous agitation.
To determine the kinetic activity for each enzyme, substrate concentration was varied and measured at different time points. In addition to testing each enzyme, a wild type E. coli PET control (see Table 1) was run at its optimal conditions. A blank containing pNPA but no enzyme was also included for each of the temperature pH combinations to be tested.
Initial pNPA concentrations were tested at 0, 25, 50, 100, 150, 200 μM. Measurements were made at 0, 15, 30, 60, and 120 minutes.
The phosphate buffer was of pH 6, 7, or 8 as determined to be best from Example Set 1. Stock solutions of pNPA were made in different concentrations such that adding 20 μl to the reaction would result in the corresponding final pNPA concentration (either 25, 50, 100, 150, or 200 μM). Cell lysate was diluted to concentrations of 250 μg/m to allow for uniformity in the volume of lysate added to each reaction. Instead of diluted lysate, each blank received an extra 200 μl of phosphate buffer. […]

[3] = Temperature and pH optimisation, pNPA reaction assay (Example Set 1); type: biochemical; details: tested 22, 30, 37 °C; pH 6, 7, 8; 100 μM pNPA
Excerpt: as §1, §2
Example Set 1 had the objective of determining the optimum temperature and pH conditions at which to run experiments for enzymatic activity characterization. As such, temperature and pH were the only conditions that varied in this experiment. Both were tested at three different levels which were similar to normal cell conditions: 22, 30 and 37° C. for temperature and 6, 7, and 8 for pH.
These were tested for all 8 enzymes from Table 1, as well as the wild type control, and a blank containing no enzyme.
The phosphate buffer was of 6, 7, or 8 pH, respectively. Lysate for each enzyme was diluted down to 250 μg/ml to facilitate ease of addition—each blank received an extra 100 μl of phosphate buffer instead of diluted cell lysate. The enzymatic component was added last and was the catalyst to initialize the reaction. The reactions were performed in three deep 96-well plates each of which was incubated at one of the temperature conditions. Agitation was provided by incubators shaking at 230 RPM.
Readings were made at 30 and 60 minutes following the initialization of the reaction. To make a reading, 200 μl of the reaction volume were transferred from the deep well plates to standard 96-well plates. The pNP product of the pNPA reaction assays is detected through Absorbance at a wavelength of 410 nm.
A curve was generated to convert from absorbances to pNP concentration. The relationship between a colored chemical and its absorbance is usually linear and can be used to convert absorbance values into chemical concentrations. To know how much pNP was being detected through absorbance, it was necessary to create a standard curve to obtain values for the relationship between the concentration of pNP and the absorbance of pNP. Creating a standard curve involved creating samples of different pNP concentrations. For the pNP to give color, it needed to be ionized. Accordingly, pNP was ionized in the presence of NaOH at a concentration of 0.4 g/ml. A standard curve was created by taking the absorbance of pNP at various known concentrations. […] As also seen in FIG. 5, the data (solid line) closely follows a linear pattern over the concentration range being tested for pNP. The R2 value for the linear regression is 0.9939. The formula for converting from absorbance to pNP, derived from that linear regression, is seen in Equation A1: [pNP]=(Abs+0.0244)/25.929 [A1]

Molecule | vapor pressure [1] [mm Hg] | ethyl acetate yielded (E. coli BL21-DE3) [mg/L] | ethyl lactate yielded (E. coli BL21-DE3) [mg/L] | specificity constant, comparison in words [2] | vmax × 10^−6 [2] | Km [2] [µM] | kcat [2] [s⁻¹] | Temperature giving 2nd highest conversion of pNPA to pNP [3] [°C] | Temperature giving highest conversion of pNPA to pNP [3] [°C] | pH giving 2nd highest conversion of pNPA to pNP [3] | pH giving highest conversion of pNPA to pNP [3]
CCOC(=O)C(C)O (stereo not drawn) [ethyl lactate] | 3.75 |  |  |  |  |  |  |  |  |  | 
Cc1ccccc1 [toluene] | 28.4 |  |  |  |  |  |  |  |  |  | 
xylene | 8.84 |  |  |  |  |  |  |  |  |  | 
EstA: esterase from Pseudomonas aeruginosa, expressed in BL21 E. coli (protein, UniProt O33407 25-646, looked up) Esterase EstA: APSPYSTLVVFGDSLSDAGQFPDPAGPAGSTSRFTNRVGPTYQNGSGEIFGPTAPMLLGNQLGIAPGDLAASTSPVNAQQGIADGNNWAVGGYRTDQIYDSITAANGSLIERDNTLLRSRDGYLVDRARQGLGADPNALYYITGGGNDFLQGRILNDVQAQQAAGRLVDSVQALQQAGARYIVVWLLPDLGLTPATFGGPLQPFASQLSGTFNAELTAQLSQAGANVIPLNIPLLLKEGMANPASFGLAADQNLIGTCFSGNGCTMNPTYGINGSTPDPSKLLFNDSVHPTITGQRLIADYTYSLLSAPWELTLLPEMAHGTLRAYQDELRSQWQADWENWQNVGQWRGFVGGGGQRLDFDSQDSAASGDGNGYNLTLGGSYRIDEAWRAGVAAGFYRQKLEAGAKDSDYRMNSYMASAFVQYQENRWWADAALTGGYLDYDDLKRKFALGGGERSEKGDTNGHLWAFSARLGYDIAQQADSPWHLSPFVSADYARVEVDGYSEKGASATALDYDDQKRSSKRLGAGLQGKYAFGSDTQLFAEYAHEREYEDDTQDLTMSLNSLPGNRFTLEGYTPQDHLNRVSLGFSQKLAPELSLRGGYNWRKGEDDTQQSVSLALSLDF |  | 16 ± 8 | 3.5 ± 1.5 | top performing enzymes | 1.09 ± 0.05 × 10^−6 molL^−1s^−1 | 4.89 ± 1.16 | 1.52 ± 0.36 | 37 | 22 | 8 | 7
EEB1: esterase from Saccharomyces cerevisiae, expressed in BL21 E. coli, used as cell lysate (protein, UniProt Q02891 1-456, looked up, cell lysate) Medium-chain fatty acid ethyl …: MFRSGYYPTVTPSHWGYNGTVKHVLGEKGTKSLAFRDSKRQIPLHEFVTKHVPTLKDGANFRLNSLLFTGYLQTLYLSAGDFSKKFQVFYGREIIKFSDGGVCTADWVMPEWEQTYSLNAEKASFNEKQFSNDEKATHPKGWPRLHPRTRYLSSEELEKCHSKGYSYPLVVVLHGLAGGSHEPLIRALSEDLSKVGDGKFQVVVLNARGCSRSKVTTRRIFTALHTGDVREFLNHQKALFPQRKIYAVGTSFGAAMLTNYLGEEGDNCPLNAAVALSNPWDFVHTWDKLAHDWWSNHIFSRTLTQFLTRTVKVNMNELQVPENFEVSHKPTVEKPVFYTYTRENLEKAEKFTDILEFDNLFTAPSMGLPDGLTYYRKASSINRLPNIKIPTLIINATDDPVTGENVIPYKQARENPCVLLCETDLGGHLAYLDNESNSWLTKQAAEFLGSFDELVL |  |  |  | top performing enzymes | 1.34 ± 0.26 × 10^−6 molL^−1s^−1 | 3.9 ± 0.74 | 1.39 ± 0.26 | 30 | 22 | 8 | 7
